A word on the Kd: it is the concentration at which binding is half-saturated. Low readings indicate a tighter complex, high ones a looser complex. As a reminder, the IC50 is the midpoint of a concentration-inhibition curve. A low value points to inhibition by little substance.

Here are results for 48 molecules from patent publication US20030167129A1 (published 2003).

Where no end group is shown, it is not given here. [ ]: non-standard residue; d: D form. 1Nal = N[C@@H](Cc1cccc2ccccc12)C(=O)O; 2Nal = N[C@@H](Cc1ccc2ccccc2c1)C(=O)O; Tic = O=C(O)[C@@H]1Cc2ccccc2CN1; Aib = CC(C)(N)C(=O)O

Assay [1] addresses T1, SDF-1α (UniProt P48061-2 22-89, 125I label on the radioligand form).
T1 construct: Labelled and unlabelled forms are kept as one molecule
Briefly: radioligand saturation binding, [125I]-SDF-1α on membrane preparations of GST-CXCR4 (High Five).
Experimental: Whole cells from Sf9 and High five cell lines were lysed using hypotonic buffers (10 mM Tris, pH 7.4, 5 mM EDTA), and membrane preparations were made by homogenization and centrifugation using standard techniques known to those skilled in the art. […] For filtration and washing, the reaction was transferred to Millipore Multiscreen filter plates (HATF 0.45 μm; pre-blocked with 10% BSA) (Bedford, Mass.), filtered using vacuum, washed 4-5 times with 200 μL ice-cold buffer, and radioactive counts bound were detected using scintillation counting. All points were done in triplicate. Uninfected cells were used as a control for this experiment. […] Analyses of KD and IC₅₀ were performed using non-linear curve fitting in Kaleidagraph (software program sold by Synergy Software, Reading, Pa.).

Assay [2] has as its target T2, CXCR4 (CXC chemokine receptor 4), tagged construct not stated (human, UniProt P61073 1-352).
T2 construct: whole, on cells; Receptor of the radioligand displacement assays of the peptides; in insect cell membranes; also called the receptor; CXCR4-containing membranes
Briefly: binding inhibition curves, [125I]-SDF1α displacement.

The target of assay [3] is T2, CXCR4 (CXC chemokine receptor 4), …. As to the kind of experiment: inhibition of [125I]-SDF1α binding to CXCR4.
For assay [4] the target is unchanged. Briefly: radioligand displacement of [125I]-SDF-1 from CXCR4. In general terms: Loss of bound radioactivity is the signal in a displacement assay; it reports binding, not function.
Assay [5] addresses CXCR4 as HIV co-receptor in the HIV infectivity assay (HELA / Magi cells) (UniProt P61073 1-352, limits assumed). As to the kind of experiment: cell-based or functional assay.

T1 sequence (P48061 22-89 limits assumed): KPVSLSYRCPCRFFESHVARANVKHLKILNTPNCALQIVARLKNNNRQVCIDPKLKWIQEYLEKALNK

B1: CXCR4-GST (receptor, human, UniProt P61073 1-352, looked up)
chain: MEGISIYTSDNYTEEMGSGDYDSMKEPCFREENANFNKIFLPTIYSIIFLTGIVGNGLVILVMGYQKKLRSMTDKYRLHLSVADLLFVITLPFWAVDAVANWYFGNFLCKAVHVIYTVNLYSSVLILAFISLDRYLAIVHATNSQRPRKLLAEKVVYVGVWIPALLLTIPDFIFANVSEADDRYICDRFYPNDLWVVVFQFQHIMVGLILPGIVILSCYCIIISKLSHSKGHQKRKALKTTVILILAFFACWLPYYIGISIDSFILLEIIKQGCEFENTVHKWISITEALAFFHCCLNPILYAFLGAKFKTSAQHALTSVSRGSSLKILSKGKRGGHSSVSTESESSSFHSS
notes: whole, on cells; Full-length receptor expressed by baculovirus in High Five or Sf9 insect cells; assayed as membrane preparations or solubilized and immobilized on glutathione resin; also called GST-CXCR4 (High Five); CXCR4 with C-terminal GST tag; not shown: C-terminal GST tag
Molecule B1 returned a Kd in assay [1] of 3.27 nM.
Regarding ARSLI[2Nal]RAARR[2Nal]RR (also called ARSLI(2-Nal)RAARR(2-Nal)RR) [CPI-1365], the binding result in assay [2] is recorded as “binds”.
Take ARSLI[2Nal]RHARR[2Nal]RR (also called ARSLI(2-Nal)RHARR(2-Nal)RR) [CPI-1443]: the binding result in assay [3] was “binds”.
On the same count and under the same terms, the result for ARSLI[2Nal]RPARR[2Nal]RR (also called ARSLI(2-Nal)RPARR(2-Nal)RR) [CPI-1701] reads “binds”.

B2: CPI-1366 (peptide)
peptide: Ac-ARSLI[2Nal]RAARR[2Nal]RR
notes: also called Ac-ARSLI(2-Nal)RAARR(2-Nal)RR
For B2, the binding result in assay [3] is on record as “binds”.

B3: CPI-1221 (peptide)
peptide: MARSLIWRPAKAKKK
notes: Original 15-mer consensus peptide; also called M-A-R-S-L-I-W-R-P-A-K-A-K-K-K
B3: the IC50 in assay [4] is ~60000 nM.
As for MARSLIWAPAKAKKK [CPI-1305], the binding result in assay [3] is given as “binds”.
Turning to MARSFIWRPAKAKKK [CPI-1296], the binding result in assay [3] is given as “binds”.
Take MARSTIWRPAKAKKK [CPI-1298]: the binding result in assay [3] was “binds”.
On the same count and under the same terms, with MARALIWRPAKAKKK [CPI-1328] the entry was “binds”.
The same measure, in the same setting: the result for MARSLIWRPAKAKAK [CPI-1310] reads “binds”; that for MARSLIWRPAKAKKA [CPI-1312], “binds”.
As for MAASLIWRPAKAKKK [SEQ ID NO 12 (Table 1 row without a CPI number)], the binding result in assay [3] is recorded as “binds”.
On the same count and under the same terms, with MARSLAWRPAKAKKK [CPI-1308] the entry was “binds”; with MARSLIARPAKAKKK [CPI-1304], “binds”.
Same read-out and setting: the result for MARSLIWRAAKAKKK [CPI-1295] reads “binds”; that for MARSLIWRPAKAAKK [CPI-1301], “binds”.
On to MARSLIWGPAKAKKK [CPI-1334], for which, in assay [3], the binding result was “binds”.
Turning to MARSAIWRPAKAKKK [CPI-1307], the binding result in assay [3] was “binds”.
The same measure, in the same setting: with MAASLIWRPAKAKKK [CPI-1329] the entry was “binds”.
Regarding MARSLIWRPAAAKKK [CPI-1306], the binding result in assay [3] was “binds”.
The same measure, in the same setting: with ARSLIWRLARRWRR [CPI-1425] the entry was “binds”; with FARSLI[2Nal]EAARR[2Nal]RR (also called FARSLI(2-Nal)EAARR(2-Nal)RR) [CPI-1389], “binds”; with FARSLIERAARRWRR [CPI-1330], “binds”.

B4: CPI-1456 (peptide)
peptide: RRARSLI[2Nal]RAARR[2Nal]RR
notes: also called RRARSLI(2-Nal)RAARR(2-Nal)RR
On to B4, for which the binding result in assay [3] is “binds”.
On the same count and under the same terms, with MARSLI[2Nal]RPAKAKKK [CPI-1309] the entry was “binds”; with MARSLIWR[Tic]AKAKKK [CPI-1302], “binds”; with MARSLIWRPAREWRR [CPI-1377], “binds”.
On to ARSIWRLARRWRR [CPI-1382], for which the binding result in assay [3] is given as “binds”.
The same measure, in the same setting: with RSLIWRPAKAKKK [CPI-1247] the entry was “binds”.
On the same count and under the same terms, the result for ISLIWRPAKAKKK [CPI-1248] reads “binds”; that for MAESLIWRPARRWRR [CPI-1374], “binds”; that for MARSLIWRPAERWRR [CPI-1373], “binds”.
Still for that read-out and setting: with ARSLI[2Nal]R[Tic]ARR[2Nal]RR [CPI-1458] the entry was “binds”.
Take MARSLIWRPAKKK [CPI-1249]: the binding result in assay [3] was “binds”.
Still for that read-out and setting: the result for MARSLIWRPAKARRR [CPI-1289] reads “binds”.

B5: CPI-1500 (peptide)
peptide: ARSLI[2Nal]R[Tic]ARR[2Nal]RR-NH2
modifications: N-terminus assumed
SMILES: CC[C@H](C)[C@H](NC(=O)[C@H](CC(C)C)NC(=O)[C@H](CO)NC(=O)[C@H](CCCNC(=N)N)NC(=O)[C@H](C)N)C(=O)N[C@@H](Cc1ccc2ccccc2c1)C(=O)N[C@@H](CCCNC(=N)N)C(=O)N1Cc2ccccc2C[C@H]1C(=O)N[C@@H](C)C(=O)N[C@@H](CCCNC(=N)N)C(=O)N[C@@H](CCCNC(=N)N)C(=O)N[C@@H](Cc1ccc2ccccc2c1)C(=O)N[C@@H](CCCNC(=N)N)C(=O)N[C@@H](CCCNC(=N)N)C(N)=O
Turning to B5, in assay [5], the “inhibition of HIV IIIb infection, EC50” value amounted to 280 nM.
Regarding FHEFRSLIWRPAKAKKK [CPI-1300], in assay [3], the binding result is on record as “binds”.
Same read-out and setting: with YHEFRSLIWRPAKAKKK [CPI-1299] the entry was “binds”; with ARSLIWRPAKAKKK [CPI-1292], “binds”; with KKKARSLIWRPAKAKKK [CPI-1331], “binds”.
ARSLIWRPARRRRR [CPI-1297]: the binding result in assay [3] was “binds”.
For MARSLI[1Nal]RPAKAKKK [CPI-1291], in assay [3], the binding result is “binds”.
Still for that read-out and setting: the result for MARSLIWRPARRRRR [CPI-1332] reads “binds”; that for MARSLIWRP[Aib]KAKKK [CPI-1303], “binds”; that for RSLIWRPAK [CPI-1250], “binds”.
Regarding FARSLI[2Nal]AARR[2Nal]RR [CPI-1390], in assay [3], the binding result is “binds”.
Same read-out and setting: with MARSLIWEPARRWRR [CPI-1372] the entry was “binds”.
